Measurements reported in IntAct's records for PubMed 21398607.

Biological target: wasp_mouse Was (UniProt P70315)
Sequence (P70315 whole entry): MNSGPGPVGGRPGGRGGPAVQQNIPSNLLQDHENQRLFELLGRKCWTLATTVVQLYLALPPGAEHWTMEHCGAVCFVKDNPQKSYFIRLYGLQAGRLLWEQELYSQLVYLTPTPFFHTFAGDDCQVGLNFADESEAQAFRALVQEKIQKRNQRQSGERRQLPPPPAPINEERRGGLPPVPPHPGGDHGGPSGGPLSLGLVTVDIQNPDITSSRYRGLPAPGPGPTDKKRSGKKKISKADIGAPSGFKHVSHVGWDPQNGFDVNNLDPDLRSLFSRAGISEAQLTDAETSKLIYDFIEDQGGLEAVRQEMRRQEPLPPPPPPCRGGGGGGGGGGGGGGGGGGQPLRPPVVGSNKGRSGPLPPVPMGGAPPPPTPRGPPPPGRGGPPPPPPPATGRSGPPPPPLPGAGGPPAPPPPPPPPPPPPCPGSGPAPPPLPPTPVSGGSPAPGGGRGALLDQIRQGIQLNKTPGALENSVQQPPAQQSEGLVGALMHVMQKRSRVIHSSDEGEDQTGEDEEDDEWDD

Chain of WAS/WASL-interacting protein family member 1 (Homo sapiens), O43516 S436A (O43516 whole entry S436A): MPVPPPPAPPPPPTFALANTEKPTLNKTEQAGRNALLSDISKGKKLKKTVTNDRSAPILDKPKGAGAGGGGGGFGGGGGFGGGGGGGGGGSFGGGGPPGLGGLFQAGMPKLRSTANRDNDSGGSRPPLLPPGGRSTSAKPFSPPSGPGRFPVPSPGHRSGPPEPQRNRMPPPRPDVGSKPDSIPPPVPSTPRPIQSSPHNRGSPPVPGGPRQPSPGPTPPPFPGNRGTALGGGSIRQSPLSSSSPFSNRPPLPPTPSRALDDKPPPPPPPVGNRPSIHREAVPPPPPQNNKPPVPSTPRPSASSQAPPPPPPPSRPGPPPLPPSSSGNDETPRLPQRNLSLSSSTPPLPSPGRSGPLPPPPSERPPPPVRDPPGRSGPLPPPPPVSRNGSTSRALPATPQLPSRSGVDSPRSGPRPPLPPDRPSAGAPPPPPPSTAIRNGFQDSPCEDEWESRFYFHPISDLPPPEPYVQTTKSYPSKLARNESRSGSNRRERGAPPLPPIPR

WAS/WASL-interacting protein family member 1 (Homo sapiens), O43516 S436A
effect of a mutation on the interaction: disrupting interaction
